Data from publication PMC12926040, “ADP-ribose is a competitive inhibitor of methanol dehydrogenases from Bacillus methanolicus” (The Journal of Biological Chemistry, 2025).

Experiments:
[1] = Specific activity of ACT and its mutants for the hydrolysis of ADPR; type: biochemical
Protocol: After a 5-minute incubation at 25°C, the reaction was terminated by the addition of 10 μL of 3 M H₂SO₄. The products were subsequently analyzed by HPLC.

BmMDH2 = BmMDH2 (Bacillus methanolicus, UniProt I3E949); experiment: BmMDH2 activation by ACT, NADH formation monitored at 340 nm; type: biochemical; conditions: 100 nM BmMDH2, 3 mM NAD+, pH 9.5
Protocol: Figure 1 ACT-catalyzed conversion of NAD^+ into a compound that activates BmMDH2.A, effect of ACT concentration on BmMDH2 activation. The formation of NADH was monitored at 340 nm, with 100 nM BmMDH2 in glycine-NaOH buffer (pH 9.5) containing 0 to 125 nM ACT, 3 mM NAD^+, 20 mM ethanol, 5 mM MgCl2 and 0.5 mM MnCl2. Data for the initial 10 min are highlighted in the right panel. Data were from a single experiment. B, effects of the following treatments on BmMDH2 activation: preincubated ACT & NAD^+ (red), preincubated ACT & BmMDH2 (blue), ultrafiltrate of preincubated ACT & NAD^+ (green), and ultrafiltrate of ACT (purple) or NAD^+ (cyan) solutions. Preincubations were performed in glycine-NaOH buffer (pH 9.5) with 5 mM MgCl2 and 0.5 mM MnCl2 at 25 °C for 30 min. Ethanol, BmMDH2, or NAD^+ was subsequently added to achieve final concentrations of 10 nM ACT, 20 mM ethanol, 3 mM NAD^+, and 200 nM BmMDH2. For ultrafiltration, preincubated samples were filtered (10 kDa cutoff, Millipore), and the flowthrough was used for activation assays. Data represent means ± SD (n = 3). C, effect of NAD^+ concentration on BmMDH2 activation. Activity was measured using 100 nM BmMDH2 in glycine-NaOH buffer (pH 9.5) with 50 nM ACT, 0 to 20 mM NAD^+, 5 mM MgCl2, and 0.5 mM MnCl2. Data were from a single experiment. D, time-course of BmMDH2 activation. Reaction were performed in 200 μl glycine-NaOH buffer (100 mM, pH 9.5) with 5 mM MgCl2, 0.5 mM MnCl2, 0.25 mM NAD^+, 0.1 μM BmMDH2, 20 mM ethanol, and 50 nM ACT. Fresh NAD^+ (4 μl, 150 mM) was added twice during the reaction. Data were from a single experiment. E, catalytic rates of BmMDH2 were calculated from the slopes of the data in panel D. Additional replicates of the experiments shown in panels A, C, and D are provided in Fig. S4. […]
The catalytic processes of MDHs were monitored by measuring NADH absorbance at 340 nm using a Tecan SPARK UV-Vis plate reader (Tecan Austria GmbH) at 25 °C. […]

BmMDH1 = conditions: ref [14], [15]; cited from earlier work

Sequence of BmMDH2 (I3E949 entry or part of it): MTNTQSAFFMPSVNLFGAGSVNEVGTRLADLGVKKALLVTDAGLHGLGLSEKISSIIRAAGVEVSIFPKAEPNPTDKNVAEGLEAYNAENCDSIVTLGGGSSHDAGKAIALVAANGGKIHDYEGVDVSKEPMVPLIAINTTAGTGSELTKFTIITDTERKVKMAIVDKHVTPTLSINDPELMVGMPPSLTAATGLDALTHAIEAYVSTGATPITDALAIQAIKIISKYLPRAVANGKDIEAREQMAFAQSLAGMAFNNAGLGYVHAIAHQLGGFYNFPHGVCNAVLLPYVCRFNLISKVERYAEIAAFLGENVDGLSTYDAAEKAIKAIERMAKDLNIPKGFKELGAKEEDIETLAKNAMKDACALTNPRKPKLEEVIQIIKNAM

B1: ACT: activator protein ACT, Nudix hydrolase from B. methanolicus MGA3 with ADPRase activity (protein)
chain: MGKLFEEKTIKTEQIFSGRVVKLQVDDVELPNGQTSKREIVRHPGAVAVIAITNENKIVMVEQYRKPLEKSIVEIPAGKLEKGEDPRVTALRELEEETGYECEQMEWLISFATSPGFADEIIHLYVAKGLSKKENAAGLDEDEFVDLIELTLDEALQYIKEKRIYDSKTVIAVQYLQLQEALK
modifications: left off: His tag (from the vector pET21a(+) and the Ni-affinity column), end not stated, state not stated
[1]; pH 8.0, 400 μM ADPR, 5 mM MgCl2, 25 °C
  Specific activity (ADPRase): 61.2 ± 0.5 U/mg
[1]; pH 9.5
  ADPRase activity: 51.6 ± 0.4 U/mg
BmMDH2; 31.3 nM ACT
  time to full activation of BmMDH2: ≤ 2.8 min
BmMDH2
  ACT concentration that triggered immediate BmMDH2 activation: > 62 nM
BmMDH1
  increase of BmMDH1 activity: 40 fold
